Experimental data reported in FireProtDB (doi:10.1016/0022-2836(92)90907-2).

B1: Ribonuclease, P00648 (parent)
chain: MMKMEGIALKKRLSWISVCLLVLVSAAGMLFSTAAKTETSSHKAHTEAQVINTFDGVADYLQTYHKLPDNYITKSEAQALGWVASKGNLADVAPGKSIGGDIFSNREGKLPGKSGRTWREADINYTSGFRNSDRILYSSDWLIYKTTDHYQTFTKIR

Variants of: B1
Conditions: Bacillus amyloliquefaciens; pH 6.3; 25 °C; Urea; Fluorescence; MES 450 mM; reversible: yes; structure 1BNI; whole UniProt chain shown

Row | Variant | ddG of mutation (higher = less stable) [kcal/mol] | denaturant m value [kcal/mol/M] | denaturant midpoint (higher = more stable) [M] | unfolding free energy [kcal/mol]
1 | A79Q | 0.35 | 1.95 | 4.3 | 8.48
2 | A79E | -0.13 | 2.08 | 4.3 | 8.96
3 | A79R | 0.2 | 1.91 | 4.5 | 8.63
4 | A79Y | 0.7 | 1.95 | 4.1 | 8.13
5 | A79M | 0.08 | 1.97 | 4.4 | 8.75
6 | A79G | 0.65 | 1.98 | 4.1 | 8.18
7 | A79L | -0.08 | 2.02 | 4.4 | 8.91
8 | A79F | 0.43 | 1.98 | 4.2 | 8.4
9 | A79P | 4.12 | 1.89 | 2.4 | 4.71
10 | A79N | 0.33 | 2 | 4.2 | 8.5
11 | A79S | 0.16 | 1.98 | 4.3 | 8.67
12 | A79K | 0.1 | 1.94 | 4.5 | 8.73
13 | A79W | 1.14 | 1.88 | 4 | 7.69
14 | A79C | 1.85 | 1.71 | 4 | 6.98
15 | A79V | 0.34 | 2.05 | 4.1 | 8.49
16 | A79H | 0.7 | 1.94 | 4.1 | 8.13
17 | A79D | 0.41 | 1.99 | 4.2 | 8.42
